Source: US7842460

Key:
[1] = target: ISG15-PLA2mX fusion (mouse) (UniProt Q9QXX3); assay: cell-based or functional assay
Ubiquitin-PLA2mX fusion = target: T1, Ubiquitin-PLA2mX fusion (UniProt Q9QXX3)
T1 sequence: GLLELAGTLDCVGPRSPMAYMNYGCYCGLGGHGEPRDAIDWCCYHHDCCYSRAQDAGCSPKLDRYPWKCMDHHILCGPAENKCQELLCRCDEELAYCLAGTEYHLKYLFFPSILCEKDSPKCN

Row | rate of PLA2 activity (fluorescent lipid substrate), extracts of UBP43-transfected against non-transfected HEK293T cells [1] [fold] | Substance | Ratio of PLA2 activity, fusion with isopeptidase over fusion without (Ubiquitin-PLA2mX fusion) | cleavage of the fusion by SDS-PAGE (10 ug fusion, 3 ug core domain of USP2) (Ubiquitin-PLA2mX fusion)
1 | 4 | UBP43, the ISG15-specific isopeptidase (enzyme) | – | –
2 | – | core domain of USP2 (shared core enzymatic domain of the spliced USP2 product, either USP2a or USP2b) | 9.37 | complete cleavage of the fused Ub-PLA2mX was seen
